Patent publication US20250215403A1, “Compositions and Methods for Cardiac Tissue Regeneration” (Temple University - Of The Commonwealth System Of Higher …, priority 2022, published 2025)

Key:
PSAT1 = PSAT1 protein expression in mouse myocardium post-MI after modRNA delivery; assay type: in vivo; conditions: 100 μg modRNA into myocardium post-MI; within 24 hours
Protocol: (§1) In vivo transfection of modRNA was done as described previously in a recent method paper (Magadum A., et al., Circulation. 2020, 141 (15): 1249-1265; Sultana N., et al., Mol Ther, 2017, 25 (6): 1306-1315) using sucrose citrate buffer containing 10 μl of sucrose in nuclease-free water (0.3 g/ml), 10 μl of citrate (0.1M pH-7; Sigma) mixed with 10 μl of different concentrations of modRNA in saline to a total volume of 30 μl. Immediately after LAD ligation, mice received an intra-myocardial injection of modRNA (100 μg) in total volume of 30 μL at 3 different sites (mid-anterior×2 places and apical anterior) in the peri-infarct area (Magadum A., et al., Circulation. 2020, 141 (15): 1249-1265; Magadum, A., et al., 2021, Advanced Science, 9:2004661). For in vitro transfection, RNAiMAX transfection reagent (Life Technologies) was used according to manufacturer's recommendation (Magadum A., et al., Circulation. 2020, 141 (15): 1249-1265; Sultana N., et al., Mol Ther, 2017, 25 (6): 1306-1315).
All surgical and experimental procedures with mice were performed in accordance with protocols approved by Institutional Animal Care and Use Committees at Temple University Animal Care and Use Committee (IACUC). C57BL6 or CM-specific MADM mice (8-12-weeks-old) were anesthetized with isoflurane. […] This ratio was calculated as the heart tissue weight relative to the mouse total body weight in grams (g). […]

[1] = system: serine synthesis pathway (SSP); assay: 13C glucose isotopic tracer metabolic flux analysis in neonatal rat CMs; assay type: cell-based
Protocol: P3 neonatal rat CMs (2×10^6) were cultured in DMEM and transfected with Luc or PSAT1 modRNA. After 6 hours medium was changed with ^13C glucose-containing DMEM. Samples were collected at 10 min, 2 hours and 18 hours by flash freezing the cell culture plates using liquid nitrogen and stored at −80° C. Metabolites were extracted from cells using 80% methanol (Magadum A., et al., Circulation. 2020, 141 (15): 1249-1265). Targeted LC/MS analyses were performed on a Q Exactive Orbitrap mass spectrometer (Thermo Scientific) coupled to a Vanquish UPLC system (Thermo Scientific). The Q Exactive was operated in polarity-switching mode. A Sequant ZIC-HILIC column (2.1 mm i.d.×150 mm, Merck) was used for separation of metabolites with a flow rate was 150 μL/min. […] Relative metabolite quantitation was performed based on peak area for each metabolite. All data analyses were done using scripts written in house (Metabolomics Facility, Biotechnology Resource Center, Cornell University).

[2] = system: serine synthesis pathway (SSP); assay: Serine and glycine levels in mouse heart post-MI; assay type: in vivo; conditions: two days post-MI; HPLC study; vs Luc modRNA
[3] = Mouse MI model: echocardiography of cardiac function 28 days post-MI; assay type: in vivo
Protocol: as §1
All surgical and experimental procedures with mice were performed in accordance with protocols approved by Institutional Animal Care and Use Committees at Temple University Animal Care and Use Committee (IACUC). C57BL6 or CM-specific MADM mice (8-12-weeks-old) were anesthetized with isoflurane. MI was induced by permanent ligation of the LAD, as previously described (Garikipati, V. N. S., et al., 2019, Nature Communications, 10:4317). Briefly, the left thoracic region was shaved and sterilized. After intubation, the heart was exposed through a left thoracotomy. A suture was placed to ligate the LAD. The thoracotomy and skin were sutured closed in layers. Excess air was removed from the thoracic cavity, and the mouse was removed from ventilation when normal breathing was established. In order to determine the effect of modRNA on cardiovascular outcome after MI, modRNAs (100 μg/heart) were injected into the infarct zone immediately after LAD ligation (Magadum A., et al., Circulation. 2020, 141 (15): 1249-1265). For examination of heart histology, hearts were collected at the end of each study, quickly washed in PBS, weighed, and fixed in 4% PFA for cryo-sectioning and immunostainings. In all experiments, the surgeon was blinded to the treatment group. For assessment of heart histology, hearts were collected at the end of each study. The hearts were excised, briefly washed in PBS, perfused with perfusion buffer, weighed and fixed in 4% PFA at 4° C. overnight. The heart blocks were transverse sectioned at 6-8 μm using cryostat. The heart sections were further processed for histological evaluation using immunostaining (see below) or histological scar staining using Masson's trichrome staining kit (Sigma) according to standard procedures. Measuring the ratio of heart weight to body weight was done using a scale. This ratio was calculated as the heart tissue weight relative to the mouse total body weight in grams (g).
Mice underwent surgery to ligate the left anterior descending coronary artery as reported previously, followed by intramyocardial administration of exosomes or EVs (1×10^9) from hiPSC cells and IMR-90 cells suspended in PBS into the left ventricular wall (border zone) at two different locations and at the heart apex at one location immediately after left anterior descending ligation (Yue, Y., et al., 2020, Circulation Research, 126:315-329). The saline group underwent the same surgery but received saline without exosomes. Tissue was harvested at 7- or 28-days post-MI for histological analysis.

NRVM = assay: TUNEL apoptosis of NRVMs under hypoxic conditions; assay type: cell-based, rat; conditions: hypoxic conditions for 24 hours; agent alone

B1: PSAT1 modRNA: modified mRNA with N1-methylpseudouridine, transcribed in vitro, encoding phosphoserine aminotransferase 1 (ORF SEQ ID NO: 1, RNA SEQ ID NO: 2) (nucleic acid)
chain: AUGGAAGCCACCAAGCAAGUGGUUAACUUUGGGCCCGGGCCUGCCAAGCUGCCACACUCGGUAUUGUUGGAGAUCCAGAAGCAGCUACUAGACUACAGAGGACUCGGCAUCAGUGUGCUCGAAAUGAGUCACAGGUCAUCAGAUUUUGCCAAGAUUAUUGGCAAUACAGAGAAUCUUGUGAGGGAAUUGCUAGCUGUUCCCAACAACUACAAGGUGAUCUUUGUACAAGGAGGUGGGUCUGGCCAGUUCAGUGCUGUCCCCUUAAAUCUGAUUGGCCUGAAAGCUGGAAGGAGUGCUGACUACGUGGUGACCGGAGCUUGGUCAGCUAAGGCUGCGGAAGAAGCCAAGAAGUUUGGAACGGUGAACAUUGUCCACCCUAAACUUGGAAGUUACACAAAAAUUCCAGACCCAAGCACCUGGAACCUCAACCCGGACGCCUCCUAUGUAUACUUCUGUGCAAACGAGACUGUGCACGGGGUGGAGUUUGACUUCGUACCUGACGUCAAGGGAGCGGUGCUGGUCUGUGACAUGUCCUCAAACUUCUUAUCCAGGCCGGUGGAUGUUUCCAAGUUUGGUGUGAUUUUCGCUGGUGCUCAGAAGAAUGUUGGCUCUGCCGGGGUGACGGUGGUGAUUGUCCGGGAUGACCUGCUGGGGUUCUCGCUCAGAGAGUGCCCAUCAGUCCUUGACUACAAAGUGCAGGCUGGGAACAACUCUUUGUAUAACACACCUCCGUGCUUCAGCAUCUACGUCAUGGGCAUGGUCCUGGAAUGGAUCAAGAACAACGGCGGGGCCGCAGCCAUGGAGAAGCUCAGCUCCAUCAAAUCCCAAAUGAUUUAUGAGAUCAUUGAUAAUUCUCAAGGAUUUUAUGUAUGCCCAGUGGAGCGCCAGAAUAGAAGCAGGAUGAACAUCCCAUUUCGCAUUGGCAACGCCAAAGGAGACGAAGCUUUGGAAAAGCGGUUUCUUGACAAGGCGGUAGAACUCAACAUGAUCUCCUUGAAGGGGCACAGGUCAGUGGGAGGCAUUCGUGCCUCUCUGUAUAACGCUGUCACAACCGAAGACGUUGAGAAGCUGGCGGCCUUCAUGAAGAAUUUCUUGGAGAUGCAUCAGCUGUGA
modifications: N1-methylpseudouridine
- PSAT1 protein expression in mouse myocardium (PSAT1): robust
- glutathione levels ([1]; 13C glucose flux): Increased
- purines AMP and GMP levels ([1]; 13C glucose flux): increased
- TCA cycle intermediates ([1]; 13C glucose, vs Luc modRNA): Increased levels
- metabolites involved in the serine synthesis pathway (SSP), including phosphoserine, serine, and glycine ([1]; 13C glucose, vs Luc modRNA): significant elevation
- glycine levels in heart [2]: increase
- serine levels in heart [2]: increase
- LV end-diastolic posterior wall thickness [3]: significantly increased
- LV end-systolic posterior wall thickness [3]: significantly increased
- Fractional Shortening (% FS) ([3]; compared to Luc): significantly improved
- LVIDd (left ventricular internal diameter end-diastole) ([3]; compared to control): Improvements
- LVIDs (left ventricular internal diameter end-systole) ([3]; compared to control): Improvements
- Ejection Fraction (% EF) ([3]; myocardial delivery, compared to Luc): significantly improved
- NRVM / CM apoptosis (TUNEL+ CMs) (NRVM): significantly inhibited
